From the nanobody polyreactivity screen of Harvey et al. (2022)

Assay: yeast display, Sf9 membrane polyspecificity reagent, FACS + sequencing; frameworks hold sequencing errors
Outline: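 Galactose-induced (36–48 hours) yeast carrying a synthetic nanobody display library were exposed to 10% biotinylated, detergent-solubilized Sf9 membrane reagent at 4 °C for 1 hour. FACS followed streptavidin microbead enrichment, using low and high (top ~1%) gates for expression (anti-HA) and reagent binding (streptavidin). Colony PCR, MiSeq 2 × 250 sequencing and CDR-length filtering followed. Labels for polyreactivity reflect the gate of origin.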

| Sequence | polyreactivity (PSR sort gate) |
| --- | --- |
| QVQLVESGGGLVQAGGSLRLSCAASGSTFWFYAMGWYRQAPGKERELVAANSRSSGSTYYADSVKGRFTISRDNAKNTVYLQMNSLKPEDTAVFSCAAVEPDRDYGYWGQGTQVTVSS | low polyreactivity |
| QVQLVESGGGLVQAGGSLRLSCAASGPIFVYYARGWYREAPGKEREFVAAISASGGSTYYADSVKGRFTISRDTAKNTVYLQMNSLKPEDPAVYYCAADRLRNRPRGLREYYWGQGTQVTVSS | low polyreactivity |
| QVQLVESGGGLVQAGGSLRLSCAASGSTFPVYAMGWYRQAPGKERELVAAISRAGSTNYADSVKGRFTISRDNAKNTVYLQMNSLKPEDTAVYYCAARGYLWAGEWYVRRDYWGQGTQVTVSS | high polyreactivity |
| QVQLVESGGGLVQAGGCLRLSCADSGGTFGPYAMGWYIQAPGKEREFVARITGSGTRTYYADSVKGRFTISGDNAKNNVYLQMNSLNPEDTAVYYCATSHSRGSRGHDYWGQGTQVTVSS | low polyreactivity |
| QVQLVESGGGLVQAGGSLRLSSAASGRILQFNAMGWYRQAPGKDRELVAAITSGGSTNYADSVKGRFTISRDNAKNTVYLQMNSLKPEVTAVYYCAAQSLLWQRRLRGYYYWGQGTQVTVSS | high polyreactivity |
| QVQLVESGGGLVQAGGSLRLSCAASGRIFAYYAMGWYRQAPGKERELVAAISRSGVSTYYADSVKGRFTISRDNAKNTVYLQMNSLKPEDTAVYYCAASWWYEIFDYWGQGTQVTVSS | low polyreactivity |
| QVQLVESGGGLVQAGGSLRLSCAASGRTFANYAMGWYRQAPGKERELVAAISSGGNTYYADSVKGRFTISRDNAKNTVYLQMNSLKPEDTAVYYCNAPWYYRYQRNEYGYWGQGTQVTVSS | high polyreactivity |
| QVQLVESGGGLVQAGGSLRLSCAASGSTFTSNVMGWYRQAPGKERELVAAISTNGGRTYYADSVKGRFTISRDNAKNTVYLQMNSLKPEDTAVYYCAASLPRPGIGGRDYWGQGTQVTVSS | low polyreactivity |
| QVQLVESGGGLVQAGGSLRLSCAASGRIFDTNAMGWYRQAPGKERELVAAISSSGGRTYYADSVKGRFTISRDNAKNTVYLQMNSLRPEDTAVYYCARVPITKDQYSHYYYWGQGTQVTVSS | high polyreactivity |
| QVQLQESGGCLVQAGGSLRLSCAASGTNSDSGLMGWYRQAPGKERELVAGISSGGITTYADSVKGRFTISRDNAKNTVYLQMNSLKPEDTAVYWGQGTQVTVSC | low polyreactivity |
| QVQLVESGGGLVQAGGSLRLSCAASGRIFAWYAMGWYRQAPGKERELVAAISDSGRSTYYADSVKGRFTISRDNAKNTVYLQMNSLKPEDNAVYYCAADQVVYSAYWCDHYDYWGQGTQVTVSS | low polyreactivity |
| QVQLVESGGGLVQAGGSLRLSCAASGSIFAAYAMGWYRQAPGKERELVAVINSRGGITSYADSVKGRFTISRDNAKNTVYLQMNSLKPEDTAVYYFAARTWYSWRYDYWGQGTQVTVSS | high polyreactivity |
| QVQLVESGGGLVQAGGSLRLSCAASGISFERNGMGWYRQATGKERELVAAIRSGGSTYYADSVKGRFTISRDNAKNRVYVQMHSLKPEETAVYYCAAVTQGGYTDLGDYWGQGTQVTVSS | low polyreactivity |
| QVQIVETGGGLVQAGGSLRLSCEASGSTFRNYAMGWYRQATGKERELDAAISSGGSTNYADSVKGRFTISRDNAKNTVFLQMNSLKPEYTAVYYCAAKAWYYPGSRIYYQYYYWGQGTQVTVSS | high polyreactivity |
| QVQLVESGGGLVQAGGSLRLSCAASGSTFGLYAMGWYRQEPGKERELVAAITWRASSTYYADSVKGRFTISRDNAKNTVYLQMNSLKPEDTAVYYCAATWYSRFSRGDYDYWGQGTLVTVSS | high polyreactivity |
| QVQHVESGGALVQAGGSLRLSCAASGSTFIKYAMGWYRQAPGKERELVAAISRSGASTYYADSVKGRFTLSRDNEKNTVYLQMKSLKPEDTAVYYCAARRRYLDHGYWGQGTQVTVSS | high polyreactivity |

| Sequence | polyreactivity (PSR sort gate) |
| --- | --- |
| QVQLLESGGGLVQAGGSLRLSCMASGSILGDRMSWYRQAPGKEHELVATIYDGGITCYADSMKGRFTISRDNAKNTVYLQMNSLRPEDTAVYYCGASFEGYRYHVYCGQGTQVTVSS | low polyreactivity |
| QVQLVESGGGLVQAGGSLRLSCAASGRTFVLYTMGWYRQAPGKERELVAVGSTYYADSVKGRFTISRDNAKNTVYLQMNSLKPEDTAVYYCNKPGNYVWRRSWDFDYWGQGTQVTVSS | high polyreactivity |
| QVQLVESGGGLVQAGGSLRLSCAASGRIFHYNDMVWYRQAPGKEREFVATIRYSGGSTYYADSVKGRFTISRDNAKNTVYLQLNSLKPEDTAVYYCATSRRYLRFRNYYGYDYWGQGTQVTVSS | high polyreactivity |
| QVQLVESGGGLVQAGGSLRLSCAASGSILSYYTMGWYRQAPGKERELVAAISAGGGSTYYADSVKGRFTISRDNAKNTVYLQMNSLKPEDTAVYYCASGFSRRWQYNYWGQGTQVTVSS | high polyreactivity |
| QVQLVESGGGLVQAGGSLRLSCAASGRIIRINAMGWYRQAPGKERELVAAITRGGTTYADSVKGRFTISRDNAKNTVYLQMNSLKPEDTAVYYCNARTGRSPTGFRYWGQGTQVTVSS | high polyreactivity |
| QVQLVESGGGLVQAGGSLRLSCAASGRTIKKYAMGWDRQAPGQEREFVAAITGSGGSTYYADSVKGRFTISRDNAKNTVYLQMNSLKPEDTAVYYCAAYAYGVWHSQDGGNYWGKGTQVTVSS | low polyreactivity |
| QVQLVESGGGLVLAGGSLRLSCADSGLILRLNAMGWYRQAPGKDRELVATINRGGSTNYADSVKGRFTISRDNAKNTVFLQMNSLNPEDTAVDYCNKARTSQYHHTYWRTYGYWGQGTQVTVSS | low polyreactivity |
| QVQLVESGGGLVQAGGSLRLSCAASGLTFTGYAMGWYRQAPGKERELVASISSRGGSTYYADSVKGRFTISRDNAKITVYLQMNSLKPEDTAVYYCNAVYRGYYSGELDYWGQGTQVTVSS | high polyreactivity |
| QVQLVESAGGLVQAGGSLRYSCAASGRTIYRYAMGWYRQAPGKERELVAAINRSTGRTYYADSVKGRFTISRDNAKNTVYLQMTSLNPEDTAVYYCARSDKKYPQASSREDYGYWGQGTQVTVSS | high polyreactivity |
| QVQLVESGGGLVQAGGSLRLSCAASGYTFWDYAMGWYRQAPGKEREFVAGISFSDGGTYYADSVKGRFTITRDNAKNTVYLQMNSLKPEDTAVYYCAATYPYSWVYSGYYYWGQGTQVTVSS | low polyreactivity |
| QVQLVESGGGLVQAGGSLRLSCAASGSIFSKYTMGWSRQAPGKEWELVAVISDSGASTYYADSVKGRFTISRDNAKNTVYLEMNSLKPEDTAVYYCAAVYRGALTLYYWGQGTQVTVSS | high polyreactivity |
| QVQLVESGGGLVQAGGSLRLSCAASGYIFYQYAMGWDRQAPGKERELVAGINWRGGSTYADSVKGRFTISRDNAKITVYLQMNSLKPEDTEVYYCNANQYRQDVFRRPSYYAYYYWGQGTQVTVSS | high polyreactivity |
| QVQLVESGGGLVQAGGSLRLSCAASGSTVDWNAMGWYRQAPGKERELVAGITFRSGSTYYADSVKGRFTISRDNAKNTVYLQMNSLKPEDTAVYYCNVKLYYYYFRMYYWGQGTQVTVSS | low polyreactivity |
| QVQLVESGGGLVQAGGSLRLSCAASGRTFPYYAMGWYRQAPGKERELVAAISRRGASTYYADSVKGRFTISRDNAKNTVYLQMNSLKPEDTAVYYCNAVYRGYYSGELDYWGQGTQVTVSS | high polyreactivity |
| QVQLVESGGGLVQAGGSLRLSCAASGFTFLSNDMGWYRQSPGKERELVAGINFSGDGTYYADSVKGRFTISRDNAKNPVYLQMNSLKPEDSAVYYCAAGWLPKYGYWGKGTQVTVSS | low polyreactivity |
| QVQLVESGGGLVQAGGSLRLSCAASGRTFYAYAMGWYRQAPGKERELVAAITSGASTYYADSVKGRFTISRDNAKNTVYLQMISLKPEDTAVYYCAKRVRYYKPGYDYWGQGTQVTVSS | low polyreactivity |
